One block for each molecule: values may come before it.
What was measured:
[1] = biological target: human natriuretic polypeptide receptor hNPR1 (the membrane-bound guanylate cyclase receptor of BNP) (human) (UniProt P16066); test: cell-based or functional assay
[2] = biological target: T1, human natriuretic polypeptide receptor hNPR1 (the membrane-bound guanylate cyclase receptor of BNP) (human, UniProt P16066 33-1061); test: cell-based or functional assay
T1 sequence (looked up): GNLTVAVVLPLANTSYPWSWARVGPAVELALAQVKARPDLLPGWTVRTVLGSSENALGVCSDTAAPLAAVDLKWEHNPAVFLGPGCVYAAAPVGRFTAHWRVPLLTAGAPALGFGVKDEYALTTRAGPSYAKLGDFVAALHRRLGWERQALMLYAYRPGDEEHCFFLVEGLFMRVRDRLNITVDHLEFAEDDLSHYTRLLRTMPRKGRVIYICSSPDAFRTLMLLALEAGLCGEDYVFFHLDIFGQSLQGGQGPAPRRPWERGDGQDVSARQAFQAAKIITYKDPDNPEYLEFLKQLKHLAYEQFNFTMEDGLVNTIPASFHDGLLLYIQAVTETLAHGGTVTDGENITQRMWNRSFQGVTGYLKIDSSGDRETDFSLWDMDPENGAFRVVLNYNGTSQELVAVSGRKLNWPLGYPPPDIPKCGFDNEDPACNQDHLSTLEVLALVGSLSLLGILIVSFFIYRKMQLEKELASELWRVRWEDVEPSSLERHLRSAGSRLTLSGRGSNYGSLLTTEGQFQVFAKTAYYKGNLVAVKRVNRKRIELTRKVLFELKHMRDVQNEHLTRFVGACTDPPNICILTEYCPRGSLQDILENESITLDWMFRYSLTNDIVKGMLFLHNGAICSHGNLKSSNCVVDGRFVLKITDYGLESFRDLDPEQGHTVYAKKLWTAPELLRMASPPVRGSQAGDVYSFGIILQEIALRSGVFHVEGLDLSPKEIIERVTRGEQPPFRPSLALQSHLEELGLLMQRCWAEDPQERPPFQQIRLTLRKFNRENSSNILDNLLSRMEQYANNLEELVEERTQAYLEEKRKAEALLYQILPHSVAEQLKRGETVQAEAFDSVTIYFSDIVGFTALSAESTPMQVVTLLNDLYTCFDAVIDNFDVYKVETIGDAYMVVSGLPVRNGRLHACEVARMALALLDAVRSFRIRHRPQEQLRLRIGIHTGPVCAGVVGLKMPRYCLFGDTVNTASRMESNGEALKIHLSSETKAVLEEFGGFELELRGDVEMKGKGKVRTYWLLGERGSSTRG

Molecule: PAS800-hBNP(1-32) (ligand)
Log dose ratio from hBNP(1-32) (NPR-1 cGMP assay, HEK293T/17) [1]: 1.54
Maximum % control (cGMP HTRF, % response to BNP1-32 10 µM) [1]: 89.1%
PEC50 (n) (cGMP HTRF, transiently transfected HEK293T/17 cells) [1]: 6.53
Potency fold loss from hBNP(1-32) (NPR-1 cGMP assay, HEK293T/17) [1]: 34.3 fold
pEC50 [1]: 6.53

B1: Compound 5, hBNP(1-30)-(SEQ ID No:2)10-A (PAS attached to carboxy group of the C-terminal arginine 30) (ligand)
chain: SPKMVQGSGCFGRKMDRISSSSGLGCKVLRASPAAPAPASPAAPAPSAPAASPAAPAPASPAAPAPSAPAASPAAPAPASPAAPAPSAPAASPAAPAPASPAAPAPSAPAASPAAPAPASPAAPAPSAPAASPAAPAPASPAAPAPSAPAASPAAPAPASPAAPAPSAPAASPAAPAPASPAAPAPSAPAASPAAPAPASPAAPAPSAPAASPAAPAPASPAAPAPSAPAA
log EC50 (cGMP, TR-FRET, % Activation, CHO-K1 cells transfected with hNPR1) [2]: -7.28
log dose ratio from hBNP(1-32) (hNPR1 cGMP agonist assay) [2]: -1.95
potency fold loss from hBNP(1-32) (hNPR1 cGMP agonist assay) [2]: 89 fold

B3: Compound 2, P-(SEQ ID No:2)10-A-hBNP(3-32) (PAS attached to the alpha amino group of the N-terminal lysine 3) (ligand)
chain: PASPAAPAPASPAAPAPSAPAASPAAPAPASPAAPAPSAPAASPAAPAPASPAAPAPSAPAASPAAPAPASPAAPAPSAPAASPAAPAPASPAAPAPSAPAASPAAPAPASPAAPAPSAPAASPAAPAPASPAAPAPSAPAASPAAPAPASPAAPAPSAPAASPAAPAPASPAAPAPSAPAASPAAPAPASPAAPAPSAPAAKMVQGSGCFGRKMDRISSSSGLGCKVLRRH
log EC50 (cGMP, TR-FRET, % Activation, CHO-K1 cells transfected with hNPR1) [2]: -7.84
log dose ratio from hBNP(1-32) (hNPR1 cGMP agonist assay) [2]: -1.39
potency fold loss from hBNP(1-32) (hNPR1 cGMP agonist assay) [2]: 25 fold

Further lines, results first:

Log dose ratio from hBNP(1-32) (NPR-1 cGMP assay, HEK293T/17) [1]: 1.58
Maximum % control (cGMP HTRF, % response to BNP1-32 10 µM) [1]: 97.3%
PEC50 (n) (cGMP HTRF, transiently transfected HEK293T/17 cells) [1]: 6.49
Potency fold loss from hBNP(1-32) (NPR-1 cGMP assay, HEK293T/17) [1]: 38.2 fold
fold reduction in potency relative to PAS200 (NPR-1 cGMP assay, HEK293T/17) [1]: 5.2 fold
pEC50 [1]: 6.49
Molecule: PAS400-hBNP(1-32) (ligand)

Log dose ratio from hBNP(1-32) (NPR-1 cGMP assay, HEK293T/17) [1]: 1.5
Maximum % control (cGMP HTRF, % response to BNP1-32 10 µM) [1]: 97.4%
PEC50 (n) (cGMP HTRF, transiently transfected HEK293T/17 cells) [1]: 6.57
Potency fold loss from hBNP(1-32) (NPR-1 cGMP assay, HEK293T/17) [1]: 31.8 fold
pEC50 [1]: 6.57
Molecule: PAS600-hBNP(1-32) (ligand)

log EC50 (cGMP, TR-FRET, % Activation, CHO-K1 cells transfected with hNPR1) [2]: -7.31
log dose ratio from hBNP(1-32) (hNPR1 cGMP agonist assay) [2]: -1.92
potency fold loss from hBNP(1-32) (hNPR1 cGMP agonist assay) [2]: 83 fold
B2: Compound 3, P-(SEQ ID No:2)10-A-hBNP(6-32) (PAS attached to N-terminus of glutamine 6) (ligand)
chain: PASPAAPAPASPAAPAPSAPAASPAAPAPASPAAPAPSAPAASPAAPAPASPAAPAPSAPAASPAAPAPASPAAPAPSAPAASPAAPAPASPAAPAPSAPAASPAAPAPASPAAPAPSAPAASPAAPAPASPAAPAPSAPAASPAAPAPASPAAPAPSAPAASPAAPAPASPAAPAPSAPAASPAAPAPASPAAPAPSAPAAQGSGCFGRKMDRISSSSGLGCKVLRRH

From patent publication US20240199716A1 (ANTLIA BIOSCIENCE, published 2024)
